Measured values reported in paper PMC11116813 (2024).

Columns and labels:
Assay in all cases: ITC
[1] = target: T1, full-length human HP1α WT (hHP1α), recombinant (human, UniProt P45973 1-191)
[2] = target: human HP1α chromoshadow domain (CSD), recombinant (human)
[3] = target: T1, full-length human HP1α WT (hHP1α), …; remark: listed apart in the source
[4] = target: human HP1α chromoshadow domain (CSD), recombinant (human); remark: listed apart in the source

human HP1α chromoshadow domain (CSD), recombinant (human), sequence (chain, as listed by the source): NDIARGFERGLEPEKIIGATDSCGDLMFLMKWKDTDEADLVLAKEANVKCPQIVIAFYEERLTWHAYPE
T1 sequence (P45973 whole entry, the tested form may be a part): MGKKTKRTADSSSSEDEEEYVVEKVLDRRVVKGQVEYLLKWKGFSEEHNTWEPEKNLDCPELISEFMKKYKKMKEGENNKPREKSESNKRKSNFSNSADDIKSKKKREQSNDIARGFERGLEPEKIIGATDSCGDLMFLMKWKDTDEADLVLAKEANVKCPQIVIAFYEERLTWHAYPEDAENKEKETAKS

Row | Binder | Kd [1] [nM] | Kd [2] [nM] | Ka [3] [M⁻¹] | Ka [4] [M⁻¹]
1 | human INCENP (160-210) -6His, GST removed (domain or fragment) HTQCQLVPVVEIGISERQNAEQHVTQLMSTEPLPRTLSPTPASATAPTSQG | 25 | 39 | 3.9e+07 | 2.56e+07
2 | human INCENP fragment (121-210) WT used in Fig. 6A (domain or fragment) YLRRVTRAAAAAAAATMALAAPSSPTPESPTMLTKKPEDNHTQCQLVPVVEIGISERQNAEQHVTQLMSTEPLPRTLSPTPASATAPTSQG | 55 |  | 1.82e+07 | 
3 | YHTQCQLVPVVEIGISERQNAEQHVTQLMSTEPL (domain or fragment) [human INCENP (160-192), untagged version (Tyr-added), GST removed] |  | 39 |  | 2.57e+07
4 | human INCENP (121-270) WT -6His, GST removed (domain or fragment) LRRVTRAAAAAAAATMALAAPSSPTPESPTMLTKKPEDNHTQCQLVPVVEIGISERQNAEQHVTQLMSTEPLPRTLSPTPASATAPTSQGIPTSDEESTPKKSKARILESITVSSLMATPQDPKGQGVGTGRSASKLRIAQVSPGPRDSP |  |  | 2.35e+07 | 
5 | human INCENP (121-210) -6His, GST removed (Fig. 2D) (domain or fragment) LRRVTRAAAAAAAATMALAAPSSPTPESPTMLTKKPEDNHTQCQLVPVVEIGISERQNAEQHVTQLMSTEPLPRTLSPTPASATAPTSQG | 14 |  | 7.25e+07 | 
6 | human Sgo1 fragment (405-494), Tyr-added, GST removed (domain or fragment) YAKRALKYTDEKETEGSKPTKTPTTTPPETQQSPHLSLKDITNVSLYPVVKIRRLSLSPKKNKASPAVALPKRRCTASVNYKEPTLASKLR |  |  | 242000 | 
